Assay results reported in publication PMC5467005, “Functional Characterization of Tea (Camellia sinensis) MYB4a Transcription Factor Using an Integrative Approach”.
Substitutions are numbered along the chain they refer to.

B1: AC-III probe (dsDNA)
DNA 1: CCAGTCCACCTAACTCTACCTAACTCTACCTAACGCTGTTC
DNA 2: GAACAGCGTTAGGTAGAGTTAGGTAGAGTTAGGTGGACTGG
B2: AC-IV probe (dsDNA)
DNA 1: B1 DNA 1 with T11A, T21A, T31A
DNA 2: B1 DNA 2 with A11T, A21T, A31T
B3: AC-I probe (dsDNA)
DNA 1: CGGTACCAGTCCACCTACCGCCACCTACCGCCACCTACCGCTGTTCTCGA
DNA 2: TCGAGAACAGCGGTAGGTGGCGGTAGGTGGCGGTAGGTGGACTGGTACCG
B4: AC-II probe (dsDNA)
DNA 1: B3 DNA 1 with T16A, T26A, T36A
DNA 2: B3 DNA 2 with A15T, A25T, A35T

Target: CsMYB4a (Camellia sinensis, UniProt A0A1V0G0T8 1-244)
Assay: EMSA; Not given; EMSA according to Shen et al. 2012; salmon sperm DNA as non-specific competitor
Details: protein: recombinant; tags: N-terminal His-tag; blunt

CsMYB4a, sequence (A0A1V0G0T8 entry or part of it): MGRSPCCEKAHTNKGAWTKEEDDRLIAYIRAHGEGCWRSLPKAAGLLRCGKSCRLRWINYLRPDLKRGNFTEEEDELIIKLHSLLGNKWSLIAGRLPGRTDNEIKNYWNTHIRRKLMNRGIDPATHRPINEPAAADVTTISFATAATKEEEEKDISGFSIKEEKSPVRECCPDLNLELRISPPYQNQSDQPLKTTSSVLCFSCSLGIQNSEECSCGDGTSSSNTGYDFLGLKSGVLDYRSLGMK

Binder	binding result
B1	binds
B2	binds
B3	binds
B4	binds
